This note sets out measurements from the nanobody polyreactivity screen of Harvey et al. (2022).

The series can be described thus: yeast display, Sf9 membrane polyspecificity reagent, FACS + sequencing; frameworks hold sequencing errors. An outline of the steps: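 Galactose induction of a Saccharomyces cerevisiae BJ5465 synthetic nanobody display library ran 36–48 hours. The cells were then stained for 1 hour at 4 °C with 10% biotinylated, detergent-solubilized Sf9 membrane reagent, pulled down on streptavidin microbeads and FACS-sorted into low and high (top ~1%) gates on expression and reagent-binding fluorescence. Labels for polyreactivity follow the gate of origin.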
For “QVQLVESGGGLVQAGGSLRLSCAASGLIFYYYAMGWYRQAPGKERELVAAITTGGGTYYADSVKGRFTISRDNAKNTVYLQMNILKPEATAVFYCAVYYRSYWGYEYWGQGTQVTVSS”, the “polyreactivity (PSR sort gate)” value was “high polyreactivity”.

Take “QVQLVESGGGLVQAGGSLRLSCAASGLIIKWYAMGWYRQAPGKERELVAAITRTGGSTYYADSVKGRFTISRDNAKNTVYLQMNSLKPEDTAVYYCADRPVYFRYIAYYDWTPSFDFWGQGTQVTVSS”: the “polyreactivity (PSR sort gate)” value is “low polyreactivity”.

For “QVQLVESGGGLVQAGGSLRLSCAASGLILANYAMGWYRQAPGKDRELVAAISSSGGSTYYADSVKGRFTISRDNAKNTVYLQMNSLKPEDTAVYYCAAYPLYRRRWTGDYWGQGTQVTVSS”, the “polyreactivity (PSR sort gate)” value is listed as “high polyreactivity”.

Turning to “QVQLVESGGGLVQAGGSLRLSCAASGLILGYYAMGWYRQAPGKERELVATIRRGASTYYADSVKGRFTISRDNAKNTVYLQMNSLKPEDTAVYYCAADTERSLAGGMYYWGEGTQVTVSS”, the “polyreactivity (PSR sort gate)” value is “low polyreactivity”.

Take “QVQLVESGGGLVQAGGSLRLSCAASGLILNYYTMGSYRQAPGKERELVATISSSTGSTYYADSVKGRFTISRDNAKNTVYLQMNSLKPEDTAVYYCAADHWSYWQIYEYWGQGTQVTVSS”: the “polyreactivity (PSR sort gate)” value is “low polyreactivity”.

As for “QVQLVESGGGLVQAGGSLRLSCAASGLILVGNTMGWYRQAPGKERELVATITSGGRTYYADSVKGRFTISRDNAKNTVYLQMNSLKPEDTAVYYCAKRAFSYVGGQQDRKENYYYWGQGTQVTVSS”, the “polyreactivity (PSR sort gate)” value is listed as “high polyreactivity”.

On to “QVQLVESGGGLVQAGGSLRLSCAASGLILVPNTMGWYRQAPGKARELVAAISYSGGGTYYADSVKGRFTISRDNAKNTVYLQMNSLKPEDTAVYYCAAYDKRESAPYGYWGQGTQVTVSS”, for which the “polyreactivity (PSR sort gate)” value is “low polyreactivity”.

As to “QVQLVESGGGLVQAGGSLRLSCAASGLILYYYTMGWYRQAPGKERELVAAINSGGNTYYADSVKGRFTISRDNAKNTVYLQMNSLKPEDTAVYYCNAYRVRYKRSYDYWGQGTQVTVSS”, the “polyreactivity (PSR sort gate)” value is listed as “high polyreactivity”.

Take “QVQLVESGGGLVQAGGSLRLSCAASGLIRDGKVMGWYIQAPGKERELVAAINTSGGSTYYADSVKGRFTISRDNAKNTVYLQMNSLKPEDTAVYYCAARYPSDYDYWGQGTQVTVSS”: the “polyreactivity (PSR sort gate)” value is recorded as “low polyreactivity”.

Consider “QVQLVESGGGLVQAGGSLRLSCAASGLIVGGYTMGWYRQAPGKERDLVAAIDSADSTYYADSVKGRFTISRDNAKNTVYLQMNSLKPEDTAVYYCATYWFYSGPAFSLRETGGVNYWGQGTQVTVSS”, for which the “polyreactivity (PSR sort gate)” value is “low polyreactivity”.

In the case of “QVQLVESGGGLVQAGGSLRLSCAASGLIYVTNAMGCYRQAPGKERELVAAITSVGSTNYADSVKGRFTISRDNAKNTVYLQMNSLKPEDTAVYYCAAGVIADQSIGPTWSGSEGDYWGQGTQVTVSS”, the “polyreactivity (PSR sort gate)” value is given as “low polyreactivity”.

For the sequence “QVQLVESGGGLVQAGGSLRLSCAASGLNFDKNAMGWYRQAPGNERELLAAITRSSGTTYYADSVKGRFTISRDNAKNTVYLQMNSLKPEDTAVYYCAARFIWGYWGVGYYSWGQGTQVTVSS”, the “polyreactivity (PSR sort gate)” value is reported as “low polyreactivity”.

Regarding “QVQLVESGGGLVQAGGSLRLSCAASGLNFGSNAMGWYRQAPGKERELVAAITWSGGSTYYADSVKGRFTISRDNAKNTVYLQMNSLKPEDTAVYYCAAKRWYRYYWGQGTQVTVSS”, the “polyreactivity (PSR sort gate)” value is reported as “high polyreactivity”.

On to “QVQLVESGGGLVQAGGSLRLSCAASGLNFSEYAMGWYRQAPGKERELVAAIRSDGGSTYYADSVKGRFTISRDNAKNTVYLQMNSLKPEVTAVYYCNAPYRRSAKFRRYVYDYWGQGTQVTVSS”, for which the “polyreactivity (PSR sort gate)” value is recorded as “high polyreactivity”.

With “QVQLVESGGGLVQAGGSLRLSCAASGLNFYRYPMGWNRQAPGKERELVAAITRNGGSTYYADSVKGRFTISRDNANNTVYLQMNSLKPEDIAVYYCAADLYSAVYFSRWSDYWGQGTQVTVSS”, the “polyreactivity (PSR sort gate)” value is reported as “high polyreactivity”.

“QVQLVESGGGLVQAGGSLRLSCAASGLNFYYYAMGWYRQAPGKERELVATISSRGGSTNYADSVKGRFTISRDNAKNTVYLQMNSLKPEDTAVYYCAADRRARVWTYRSYDYWGQGTQVTVSS”: the “polyreactivity (PSR sort gate)” value is listed as “high polyreactivity”.

Turning to “QVQLVESGGGLVQAGGSLRLSCAASGLNIRYYAMGWYRQAPGKERELVAAISYNGGSTYYADSVKGRFTISRDNAKNTVYLQMNSLKPEDTAVYYCAARLYGRYGYWGQGTQVTVSS”, the “polyreactivity (PSR sort gate)” value is “high polyreactivity”.

“QVQLVESGGGLVQAGGSLRLSCAASGLSLGVYTLGWYRQAPGKEREFVASINYGGGSTYYADSVKGRFTISRDNAKNTVYLQMNSLKPEDTAVYYCNARSRWGGTRLYSYDYWGQGTQVTVSS”: the “polyreactivity (PSR sort gate)” value is given as “low polyreactivity”.

On to “QVQLVESGGGLVQAGGSLRLSCAASGLTFAENAMGWYRQAPGKERELVAAISASGGSTYYADSVKGRFTISRDNAKNTVFLQMNSLKPEDTAVYYCATRVAFLWPRRDYDYWGQGTQVTVSS”, for which the “polyreactivity (PSR sort gate)” value was “low polyreactivity”.

Turning to “QVQLVESGGGLVQAGGSLRLSCAASGLTFAINTMGWYRQAPGKERELVAAITGSGGSTYYADSVKGRFTISRDNAKNTVYLQMNSLKPEDTAVYYCAAELLYVQGYAMDYWGQGTQVTVSS”, the “polyreactivity (PSR sort gate)” value is recorded as “low polyreactivity”.

Regarding “QVQLVESGGGLVQAGGSLRLSCAASGLTFAQYAMGWYRQAPGKERELVAAITSRGTNTYYADSVKGRFTISRDNAKNTVYLQMNSLKPEDTAVYYCNTYRARLGTTFIDYDYWGQGTQVTVSS”, the “polyreactivity (PSR sort gate)” value is “high polyreactivity”.

“QVQLVESGGGLVQAGGSLRLSCAASGLTFASNAMGWYRQAPGKERELVAAISWSDGSTYYADSVKGRFTISRDNAKNTVYLQMNSLKPEDTAVYYCAADPPGFRTYRVGYWGQGTQVTVSW”: the “polyreactivity (PSR sort gate)” value is reported as “low polyreactivity”.

For “QVQLVESGGGLVQAGGSLRLSCAASGLTFCRYVMGWYRQAPVKERELVAAITSGDSTNYADSVKGRFTISRDNAKNTVYLQTYSLITEVTAGYYCAADYWYRYYIGRNPWECITFDYWGQGTQVTVSS”, the “polyreactivity (PSR sort gate)” value is “low polyreactivity”.

Turning to “QVQLVESGGGLVQAGGSLRLSCAASGLTFDAYAMGWSRPAPGKERELVAAISWSGGSTYYAASVKGRFTISRDNAKNTVYLQMNSLKPEDTAVYYCNARYAQFRYWGQGTQVTVSS”, the “polyreactivity (PSR sort gate)” value is recorded as “high polyreactivity”.

With “QVQLVESGGGLVQAGGSLRLSCAASGLTFDGYAKGWYRPAPGKERELVAAISSSSGRTYYADSVKGRFTISRDNAKNTVYLQMNSLKPEDTEVYYCNAVTTGVYKDYYYWGQGTQVTVSS”, the “polyreactivity (PSR sort gate)” value is “high polyreactivity”.

Take “QVQLVESGGGLVQAGGSLRLSCAASGLTFDPYAMGWYRQAPGKEREFVATITTSGDSTYYADSVKGRFTISRDNAKNTVYLQMNSLTPEDTAVYYCNTQSRTLGWPLDYWGQGTQVTVSS”: the “polyreactivity (PSR sort gate)” value was “high polyreactivity”.

As for “QVQLVESGGGLVQAGGSLRLSCAASGLTFDYYAMGWYRQAPGKERELVAAISIGGSTNYADSVKGRFTISRDNAKNTVYLQMNSLKPEDTAVYYCNAEFAPWGSAYGHDQYDYWGQGTQVTVSS”, the “polyreactivity (PSR sort gate)” value is recorded as “low polyreactivity”.

In the case of “QVQLVESGGGLVQAGGSLRLSCAASGLTFDYYAMGWYRQAPGKERELVAAISSSGGSTYYADSVKGRFTISRDNAKNTVYLQMNSLKPEDTAVYYCNAGGRRRIFAHSSTGDYWGQGTQVTVSS”, the “polyreactivity (PSR sort gate)” value is reported as “high polyreactivity”.

On to “QVQLVESGGGLVQAGGSLRLSCAASGLTFDYYDMGWYRQAPGKERELVASITWRGSSTYYADSVKGRFTISRDNAKNTVYLQMYSLKPEDTAVYYCAADPQSTIRDYWGQGTQVTVSS”, for which the “polyreactivity (PSR sort gate)” value is “high polyreactivity”.

On to “QVQLVESGGGLVQAGGSLRLSCAASGLTFDYYVMGWYRQAPGKERELVATISWSGDITYYADSVKGRFTISRDNAKNTVYLQMNSLKPEDTAVYYCATDKSYSSWSAQYDYWGQGTQVTVSS”, for which the “polyreactivity (PSR sort gate)” value is on record as “low polyreactivity”.

For the sequence “QVQLVESGGGLVQAGGSLRLSCAASGLTFEDNDMGWYRQAPGKERELVAAISSAGSTSYADSVKGRFTISRDNAKNTVYLQRNSLKPDDTAVYYCAKDNSPSYTPAQLDGGDDYWGQGTQVTVSS”, the “polyreactivity (PSR sort gate)” value is “low polyreactivity”.

Consider “QVQLVESGGGLVQAGGSLRLSCAASGLTFEHNAMGWYRQAPGKETEFVAVISWRGTSTYYADSVKGRFTISRDNAKNTVYLQMNSLKPEDTAVYYCATRYYGDDGYRYDHWGQGTQVTVSS”, for which the “polyreactivity (PSR sort gate)” value is recorded as “high polyreactivity”.

For the sequence “QVQLVESGGGLVQAGGSLRLSCAASGLTFEKYAMGWYRQAPGKERELVAAISQDGGSTYYADSVKGRFTISRDNAKNTVYLQMNSLKPEDTAVYYCATGLGYFSRLDYWGQGTQVTVSS”, the “polyreactivity (PSR sort gate)” value is reported as “low polyreactivity”.

For “QVQLVESGGGLVQAGGSLRLSCAASGLTFEWYPMGWSRQAPGKERELVAAITTGGTTNYADSVKGRFTISRDNAKNTVYLQMISLKPEDTAVYYCARLYRSGYEYWGQGTHVTVSS”, the “polyreactivity (PSR sort gate)” value was “low polyreactivity”.

With “QVQLVESGGGLVQAGGSLRLSCAASGLTFEYYAMGWYRQAPGKERELVAAISRRGSTYYADSVKGRFTISRDNAKNTVYLQMNSLKPEDTAVYYCNAVYYWYKGDYWGQGTQVTVSS”, the “polyreactivity (PSR sort gate)” value is listed as “high polyreactivity”.

With “QVQLVESGGGLVQAGGSLRLSCAASGLTFFLYAMGWYRQAPGKERELVAAISSRGGSTYYADSVKGRFTISRDNAKNTVYLQMNSLKTEDTAVYYCAAATKGDEDYWGQGTQVTVSS”, the “polyreactivity (PSR sort gate)” value was “high polyreactivity”.

Turning to “QVQLVESGGGLVQAGGSLRLSCAASGLTFFYYAMGWYRQAPGKERELVASITWRSGSTYYADSVKGRFTISRDNAKNTVYLQMNSLKPEDTAVYYCAAYPYTYLQLMDYWGQGTQVTVSS”, the “polyreactivity (PSR sort gate)” value is on record as “high polyreactivity”.

For “QVQLVESGGGLVQAGGSLRLSCAASGLTFGAYAMGWYRQAPGKEREFVAAITYSGGSTNYADSVKGRFTISRDNAMNTVYLQMNSLKPEDTAVYYCNAGYYSPWAFYPYDYWGQGTQVTVSS”, the “polyreactivity (PSR sort gate)” value was “high polyreactivity”.

Take “QVQLVESGGGLVQAGGSLRLSCAASGLTFGAYAMGWYRQAPGKERELVSAISWSGNTYYADSVKGRFTISRDNAKNTVYLQMNSLKPEDTAGYYCAVRSYGHGFDYWGQGTQVTVSS”: the “polyreactivity (PSR sort gate)” value is “high polyreactivity”.

For “QVQLVESGGGLVQAGGSLRLSCAASGLTFGGNAMGWYSQAPGKERELVAALSWSDDTTDYADSVKGRFTISRDNAKYTVYLQMNSLKPEDTAVYYCAARLPFEHVDYWGQGTQVTVSS”, the “polyreactivity (PSR sort gate)” value is listed as “low polyreactivity”.
